This is an account of results in publication PMC10516627 (Nucleic Acids Research, 2023).

The target in the assay is GST-RNF168 (human, UniProt Q8IYW5 1-571). The assay can be described thus: pull-down.
GST-RNF168, sequence (Q8IYW5 whole entry): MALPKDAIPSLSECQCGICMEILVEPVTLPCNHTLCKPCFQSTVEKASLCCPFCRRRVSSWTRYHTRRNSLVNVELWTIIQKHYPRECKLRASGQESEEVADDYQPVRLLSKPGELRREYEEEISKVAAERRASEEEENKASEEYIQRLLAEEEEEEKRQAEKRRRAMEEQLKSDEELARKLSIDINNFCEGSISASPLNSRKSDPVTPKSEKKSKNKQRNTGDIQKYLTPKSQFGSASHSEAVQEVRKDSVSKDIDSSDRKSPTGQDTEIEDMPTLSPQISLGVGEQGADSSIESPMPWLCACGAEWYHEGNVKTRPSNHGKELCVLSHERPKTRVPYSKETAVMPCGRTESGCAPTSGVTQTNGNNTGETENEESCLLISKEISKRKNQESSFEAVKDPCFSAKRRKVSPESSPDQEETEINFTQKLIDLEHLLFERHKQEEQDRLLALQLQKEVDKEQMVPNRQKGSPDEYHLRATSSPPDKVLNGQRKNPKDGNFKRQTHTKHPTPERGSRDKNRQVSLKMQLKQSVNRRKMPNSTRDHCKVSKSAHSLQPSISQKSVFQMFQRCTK

B1: His-HDAC6 DAC2 domain (441-835 aa) (domain or fragment, human, UniProt Q9UBN7 441-835, looked up)
chain: STETVERDNMEEDNVEESEEEGPWEPPVLPILTWPVLQSRTGLVYDQNMMNHCNLWDSHHPEVPQRILRIMCRLEELGLAGRCLTLTPRPATEAELLTCHSAEYVGHLRATEKMKTRELHRESSNFDSIYICPSTFACAQLATGAACRLVEAVLSGEVLNGAAVVRPPGHHAEQDAACGFCFFNSVAVAARHAQTISGHALRILIVDWDVHHGNGTQHMFEDDPSVLYVSLHRYDHGTFFPMGDEGASSQIGRAAGTGFTVNVAWNGPRMGDADYLAAWHRLVLPIAYEFNPELVLVSAGFDAARGDPLGGCQVSPEGYAHLTHLLMGLASGRIILILEGGYNLTSISESMAACTRSLLGDPPPLLTLPRPPLSGALASITETIQVHRRYWRSLR
In the case of B1, the binding result is “binds”.

B2: His-HDAC6 DAC1 domain (1-440 aa) (domain or fragment, human, UniProt Q9UBN7 1-440, looked up)
chain: MTSTGQDSTTTRQRRSRQNPQSPPQDSSVTSKRNIKKGAVPRSIPNLAEVKKKGKMKKLGQAMEEDLIVGLQGMDLNLEAEALAGTGLVLDEQLNEFHCLWDDSFPEGPERLHAIKEQLIQEGLLDRCVSFQARFAEKEELMLVHSLEYIDLMETTQYMNEGELRVLADTYDSVYLHPNSYSCACLASGSVLRLVDAVLGAEIRNGMAIIRPPGHHAQHSLMDGYCMFNHVAVAARYAQQKHRIRRVLIVDWDVHHGQGTQFTFDQDPSVLYFSIHRYEQGRFWPHLKASNWSTTGFGQGQGYTINVPWNQVGMRDADYIAAFLHVLLPVALEFQPQLVLVAAGFDALQGDPKGEMAATPAGFAQLTHLLMGLAGGKLILSLEGGYNLRALAEGVSASLHTLLGDPCPMLESPGAPCRSAQASVSCALEALEPFWEVLVR
Take B2: the binding result is listed as “binds”.
